As a reminder, the Kd is the concentration at which binding is half-saturated. High values mean lower affinity, low ones higher affinity.

In this experiment the target is GPIIb/IIIa (Homo sapiens, UniProt P08514). Kind of experiment: spectrofluorometry titration.

B1: RusPep (Rusvikunin-II peptide) (peptide)
chain: PESGRCRGHLRRIYYNLES
For the molecule B1, the dissociation constant (Kd) was found to be 1.6 µM.

For the origin of these results see paper PMC6549151 (2019).
